Publication doi:10.1101/2024.04.27.591446 (bioRxiv, 2024)

Experiments:
SARS-CoV-2 RBD WU1 = SARS-CoV-2 RBD WU1 (SARS-CoV-2 Wuhan-Hu-1, UniProt P0DTC2); assay: SPR
SARS-CoV1 Spike = SARS-CoV1 Spike (SARS-CoV, strain  (P59594 …, UniProt P59594)); assay: ELISA

B1: 1301B7 recombinant human monoclonal antibody (hmAb), IgG1 (antibody, V domains shown)
VH: EVQLVESGAEVKNPGSSVKVSCKASEGTFGSYPIIWVRQAPGQGLEWVGGIIPILGTVIYAQKFQGRVTITGDTYAGSAHMELSGLRSEDTAVFYCARGSYDYGDRLLNYTYYAMDVWGPGTTVTVSS
VL: QPGLTQPPSVSGAPGQRVTISCTGSRSNIGAVYAVHWYQHVPGAAPKLLIYENNNRPSGIPDRFSGSKSGTSASLVITGLQAEDEADYLCQSYDRSVGVVFGGGTRLTVL
- binding result (SARS-CoV-2 RBD WU1): binds
- binding result (SARS-CoV1 Spike): binds
